Assay results from patent publication US20100015637A1 (AbbVie / Abbott, published 2010).

Experiments:
[1] = target: human PlGF-1 comprising amino acids 1-137 produced in human embryonic kidney cells (human) (UniProt P49763); experiment: Format 2 …, capture MAb264, detection Pb264; sFlt-1 613 pmol/L (ratio 20)
[2] = target: human PlGF-1 comprising amino acids 1-137 produced in human embryonic kidney cells (human) (UniProt P49763); experiment: Format 3 Quantikine ELISA, capture MAb264, detection Pb264; sFlt-1 153 pmol/L (ratio 5)
[3] = target: human PlGF-1 comprising amino acids 1-137 produced in human embryonic kidney cells (human) (UniProt P49763); experiment: Format 1 …, capture 2-826-335, detection 1-255-713; sFlt-1 307 pmol/L (ratio 10)
[4] = target: human PlGF-1 comprising amino acids 1-137 produced in human embryonic kidney cells (human) (UniProt P49763); experiment: Format 2 …, capture MAb264, detection Pb264; sFlt-1 2300 pmol/L (ratio 75)
[5] = target: human PlGF-1 comprising amino acids 1-137 produced in human embryonic kidney cells (human) (UniProt P49763); experiment: Format 1 …, capture 2-826-335, detection 1-255-713; sFlt-1 0 pmol/L (ratio 0)
[6] = target: human PlGF-1 comprising amino acids 1-137 produced in human embryonic kidney cells (human) (UniProt P49763); experiment: Format 1 …, capture 2-826-335, detection 1-255-713; sFlt-1 77 pmol/L (ratio 2.5)
[7] = target: human PlGF-1 comprising amino acids 1-137 produced in human embryonic kidney cells (human) (UniProt P49763); experiment: Format 1 …, capture 2-826-335, detection 1-255-713; sFlt-1 613 pmol/L (ratio 20)
[8] = target: recombinant human PlGF-1 (comprising amino acids 1-131) expressed in E. coli (R&D Systems) (human) (UniProt P49763); experiment: … sandwich, capture MAb826, detection pAb264; antigen 1500 pg/mL
[9] = target: recombinant human PlGF-1 (comprising amino acids 1-131) expressed in E. coli (R&D Systems) (human) (UniProt P49763); experiment: … sandwich, capture MAb826, detection pAb264; antigen 250 pg/mL
[10] = target: T1, CHO human PlGF-1 fragment (comprising amino acids 17-131; ATCC PTA-8540) (human, UniProt P49763 35-221); experiment: … sandwich, capture MAb255, detection MAb826; antigen 15 pg/mL
T1 sequence: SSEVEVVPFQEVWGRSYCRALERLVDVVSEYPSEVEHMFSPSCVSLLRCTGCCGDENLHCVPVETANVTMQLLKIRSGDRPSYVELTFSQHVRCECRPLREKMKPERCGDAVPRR
Procedure, shortened: (§1)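 Human PlGF-1 antigen preparations, including recombinant forms expressed in CHO cells, were tested at 0 to 1500 pg/mL in a sandwich immunoassay. The capture antibody was a monoclonal anti-human PlGF-1 antibody immobilized on magnetic microparticles by passive coating and EDAC cross-linking. Detection used an acridinium ester-labeled monoclonal anti-human PlGF-1 antibody. Signal was recorded as chemiluminescent relative light units (RLU) at each antigen level.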

[11] = target: T2, CHO human PlGF-1 comprising amino acids 1-137 (human PlGF-1-His (1-131), CHO 6305) (human, UniProt P49763 19-221, N-glycans at N21 (completely glycosylated) and N89 (partially glycosylated)); experiment: as above
T2 construct: Mature human PlGF-1 with 6xHis tag (137 amino acids); also called CHO (1-137)
T2 sequence: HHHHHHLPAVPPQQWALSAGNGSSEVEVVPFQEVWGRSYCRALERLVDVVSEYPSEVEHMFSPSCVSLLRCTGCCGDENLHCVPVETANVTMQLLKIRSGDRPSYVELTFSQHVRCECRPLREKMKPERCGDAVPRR
Procedure, shortened: as §1

[12] = target: T3, human PlGF-1 fragment (comprising amino acids 17-131) produced in human embryonic kidney cells (human, UniProt P49763 35-221); experiment: as above
T3 sequence: T1 sequence
Procedure, shortened: as §1

[13] = target: T4, human PlGF-1 comprising amino acids 1-137 produced in human embryonic kidney cells (human, UniProt P49763 19-221); experiment: as above
T4 construct: Mature human PlGF-1 with 6xHis tag; also called HEK (1-137); full length HEK human PlGF-1 (1-137)
T4 sequence: T2 sequence
Procedure, shortened: as §1

[14] = target: T1, CHO human PlGF-1 fragment (comprising …); experiment: … sandwich, capture MAb255, detection pAb264; antigen 750 pg/mL
[15] = target: T2, CHO human PlGF-1 comprising amino acids …; experiment: as above
[16] = target: T3, human PlGF-1 fragment (comprising amino …); experiment: as above
[17] = target: T4, human PlGF-1 comprising amino acids …; experiment: as above
[18] = target: T4, human PlGF-1 comprising amino acids …; experiment: … sandwich, capture MAb255, detection pAb264; antigen 1500 pg/mL
[19] = target: recombinant human PlGF-1 (comprising amino acids 1-131) expressed in E. coli (R&D Systems) (human) (UniProt P49763); experiment: … sandwich, capture MAb255, detection MAb826; antigen 60 pg/mL

native sFlt-1, isolated from human placental tissue (from UniProt P17948 27-687) (receptor)
% Inhibition [1]: 89.5%
PlGF-1 Measured [1]: 82.9 pg/mL
% Inhibition [2]: 24.6%
PlGF-1 Measured [2]: 652 pg/mL
% Inhibition [3]: 80.7%
PlGF-1 Measured [3]: 197 pg/mL
% Inhibition [4]: 95%
PlGF-1 Measured [4]: 39.7 pg/mL
% Inhibition [5]: 0%
PlGF-1 Measured [5]: 1020 pg/mL
% Inhibition [6]: 41.9%
PlGF-1 Measured [6]: 594 pg/mL
% Inhibition [7]: 88.3%
PlGF-1 Measured [7]: 120 pg/mL

B1: monoclonal antibody 2-826-335 (produced by murine hybridoma cell line 2-826-335, ATCC PTA-8539) (antibody, mouse IgG1, V domains shown)
VH: QVQLKQSGPGLVQPSQSLSITCTVSGFSLTTYGIHWVRQSPGKGLEWLGVMWSGGDTDYDAAFISRLSISKDNSKSQVFFKMNSLQANDTGIYYCARYRFYGMDYWGQGTSVTVSS
VL: AIQMTQSSSSFSVSLGDRVTITCKASEDIYNRFAWYQQKPGNAPRLLISGAASLEAGVPSRFSGSGSGQDYTLSITSLQTEDVATYYCQQYWSTPWTFGGGTKLEIKR
notes: also called MAb826
RLU [8]: 1.08e+06 RLU
RLU [9]: 231000 RLU

B2: monoclonal antibody 1-255-713 (produced by murine hybridoma cell line 1-255-713, ATCC PTA-8536) (antibody, mouse IgG2a, V domains shown)
VH: QVHLQQSGAELMKPGASVKISCKATGYTFSSYWIEWVKQRPGHGLEWIGEILPGSVSNNFNEKFKDKATLTADPSSNTAYIQVSSLTSEDSAVYYCARSTGFYYGGNYFDHWGQGTTLAVSS
VL: DVVMTQTPLSLPVSPGDQASISCRSSQSLVHSNGHTYLHWYLQKPGQSPKLLIYKVSNRFSGVPDRVSGSGSGTDFTLKISRVEAEDLGVYFCSQSTHVPPTFGGGTKLEIKR
notes: also called MAb255
RLU [10]: 13300 RLU
RLU [11]: 14500 RLU
RLU [12]: 17200 RLU
RLU [13]: 26700 RLU
RLU [14]: 713000 RLU
RLU [15]: 599000 RLU
RLU [16]: 908000 RLU
RLU [17]: 1.31e+06 RLU
RLU [18]: 2.14e+06 RLU
RLU [19]: 83200 RLU
